Reference: US20050123900A1

Experiments:
[1] = biological target: HIV-1 Env 89.6 on 293 cells (HIV-1 isolate 89.6) (UniProt Q73372); test: cell-based or functional assay
[2] = biological target: HIV-1 Env BR025.9 on 293 cells (HIV-1 isolate BR025.9); test: cell-based or functional assay
[3] = biological target: HIV-1 Env BR029.2 on 293 cells (HIV-1 isolate BR029.2); test: cell-based or functional assay
[4] = biological target: HIV-1 Env HT593.1 on 293 cells (HIV-1 isolate HT593.1); test: cell-based or functional assay
[5] = biological target: HIV-1 Env NL4-3 on 293 cells (HIV-1 isolate NL4-3); test: cell-based or functional assay
[6] = biological target: HIV-1 Env RW020.5 on 293 cells (HIV-1 isolate RW020.5); test: cell-based or functional assay
[7] = biological target: HIV-1 Env TH022.4 on 293 cells (HIV-1 isolate TH022.4); test: cell-based or functional assay
[8] = biological target: HIV-1 Env UG037.8 on 293 cells (HIV-1 isolate UG037.8); test: cell-based or functional assay
[9] = biological target: HIV-1 Env UG975.10 on 293 cells (HIV-1 isolate UG975.10); test: cell-based or functional assay
[10] = biological target: HIV-1 Env US005.11 on 293 cells (HIV-1 isolate US005.11); test: cell-based or functional assay
[11] = biological target: HIV-1 Env US715.6 on 293 cells (HIV-1 isolate US715.6); test: cell-based or functional assay
[12] = biological target: HIV-1 Env #4-4/116 on pseudotype virus (HIV-1 isolate #4-4/116); test: cell-based or functional assay
[13] = biological target: HIV-1 Env #6-4/41 on pseudotype virus (HIV-1 isolate #6-4/41); test: cell-based or functional assay
[14] = biological target: HIV-1 Env #8-4/49 on pseudotype virus (HIV-1 isolate #8-4/49); test: cell-based or functional assay
[15] = biological target: HIV-1 Env #9-131 on pseudotype virus (HIV-1 isolate #9-131); test: cell-based or functional assay
[16] = biological target: HIV-1 Env GX-C44 on pseudotype virus (HIV-1 isolate GX-C44); test: cell-based or functional assay
[17] = biological target: HIV-1 Env GX-E14 on pseudotype virus (HIV-1 isolate GX-E14); test: cell-based or functional assay
[18] = biological target: HIV-1 Env MN-TCLA on pseudotype virus (HIV-1 isolate MN-TCLA) (UniProt P05877); test: cell-based or functional assay
[19] = biological target: HIV-1 Env R2 on pseudotype virus (HIV-1 isolate R2); test: cell-based or functional assay
[20] = biological target: HIV-1 Env TH966 on pseudotype virus (HIV-1 isolate TH966); test: cell-based or functional assay
[21] = biological target: HIV-1 Env VI1273 on pseudotype virus (HIV-1 isolate VI1273); test: cell-based or functional assay
[22] = biological target: HIV-1 Env VI1399 on pseudotype virus (HIV-1 isolate VI1399); test: cell-based or functional assay
[23] = biological target: HIV-1 Env Z2Z6 on pseudotype virus (HIV-1 isolate Z2Z6); test: cell-based or functional assay
[24] = biological target: gp120 89.6 (HIV-1 isolate 89.6) (UniProt Q73372); test: ELISA, antigen coated directly on plate, soluble Fab titrated, Langmuir fit
[25] = biological target: gp120 HXB2 (HIV-1 isolate HXB2) (UniProt P04578); test: as above
[26] = biological target: gp120 JR-FL (HIV-1 isolate JR-FL) (UniProt P20871); test: as above
[27] = biological target: sCD4-gp120 89.6 complex (HIV-1 isolate 89.6) (UniProt Q73372); test: ELISA, sCD4-gp120 complex coated directly on plate, soluble Fab titrated, Langmuir fit
[28] = biological target: sCD4-gp120 HXB2 complex (HIV-1 isolate HXB2) (UniProt P04578); test: as above
[29] = biological target: sCD4-gp120 JR-FL complex (HIV-1 isolate JR-FL) (UniProt P01730); test: as above
[30] = biological target: HIV-1 Env 92RW020.5 on pseudotype virus (HIV-1 isolate 92RW020.5); test: cell-based or functional assay
[31] = biological target: HIV-1 Env P37 on pseudotype virus (HIV-1 isolate P37); test: cell-based or functional assay
[32] = biological target: HIV-1 Env V5 on pseudotype virus (HIV-1 isolate V5); test: cell-based or functional assay
[33] = biological target: HIV-1 Env VI14004 on pseudotype virus (HIV-1 isolate VI14004); test: cell-based or functional assay
[34] = biological target: gp120 IIIB (HIV-1 isolate IIIB); test: ELISA, antigen coated directly on plate, soluble Fab titrated, Langmuir fit
[35] = biological target: gp140 89.6 (HIV-1 isolate 89.6) (UniProt Q73372); test: ELISA, soluble Fab titrated on Env (direct coat or D7324 capture not given)
[36] = biological target: gp140 BR019.10 (HIV-1 isolate BR019.10); test: as above
[37] = biological target: gp140 Bal-L (HIV-1 isolate Bal-L); test: as above
[38] = biological target: gp140 CM243 (HIV-1 isolate CM243); test: as above
[39] = biological target: gp140 HT593.1 (HIV-1 isolate HT593.1); test: as above
[40] = biological target: gp140 MW965.26 (HIV-1 isolate MW965.26); test: as above
[41] = biological target: gp140 R2 (HIV-1 isolate R2); test: as above
[42] = biological target: gp140 UG024.2 (HIV-1 isolate UG024.2); test: as above
[43] = biological target: gp140 UG037.8 (HIV-1 isolate UG037.8); test: as above
[44] = biological target: gp140 UG975-10 (HIV-1 isolate UG975-10); test: as above
[45] = biological target: gp140 ZR001.3 (HIV-1 isolate ZR001.3); test: as above
[46] = biological target: sCD4-gp120 IIIB complex (HIV-1 isolate IIIB) (UniProt P01730); test: ELISA, sCD4-gp120 complex coated directly on plate, soluble Fab titrated, Langmuir fit
[47] = biological target: gp120 IIIB (HIV-1 isolate IIIB); test: ELISA, soluble Fab titrated on Env (gp120 by the footnote; direct coat or D7324 capture not specified)

Fab X5
% of fusion inhibition (syncytia count), Fab at 50 µg/ml [1]: 93% | % of fusion inhibition (syncytia count), Fab at 50 µg/ml [2]: 71% | % of fusion inhibition (syncytia count), Fab at 50 µg/ml [3]: 36% | % of fusion inhibition (syncytia count), Fab at 50 µg/ml [4]: 27% | % of fusion inhibition (syncytia count), Fab at 50 µg/ml [5]: 83% | % of fusion inhibition (syncytia count), Fab at 50 µg/ml [6]: 45% | % of fusion inhibition (syncytia count), Fab at 50 µg/ml [7]: 43% | % of fusion inhibition (syncytia count), Fab at 50 µg/ml [8]: 34% | % of fusion inhibition (syncytia count), Fab at 50 µg/ml [9]: 19% | % of fusion inhibition (syncytia count), Fab at 50 µg/ml [10]: 72% | % of fusion inhibition (syncytia count), Fab at 50 µg/ml [11]: 28%

Fab m14
M14 Concentration (µg/ml) of Fab, 50% neutralization endpoint, pseudovirus assay [12]: > 100 µg/mL | M14 Concentration (µg/ml) of Fab, 50% neutralization endpoint, pseudovirus assay [13]: > 100 µg/mL | M14 Concentration (µg/ml) of Fab, 50% neutralization endpoint, pseudovirus assay [14]: 35.4 µg/mL | M14 Concentration (µg/ml) of Fab, 50% neutralization endpoint, pseudovirus assay [15]: 100 µg/mL | % of fusion inhibition (syncytia count), Fab at 50 µg/ml [1]: 100% | % of fusion inhibition (syncytia count), Fab at 50 µg/ml [2]: 71% | % of fusion inhibition (syncytia count), Fab at 50 µg/ml [3]: 71% | M14 Concentration (µg/ml) of Fab, 50% neutralization endpoint, pseudovirus assay [16]: 8.8 µg/mL | M14 Concentration (µg/ml) of Fab, 50% neutralization endpoint, pseudovirus assay [17]: 100 µg/mL | % of fusion inhibition (syncytia count), Fab at 50 µg/ml [4]: 78% | M14 Concentration (µg/ml) of Fab, 50% neutralization endpoint, pseudovirus assay [18]: 2.24 µg/mL | % of fusion inhibition (syncytia count), Fab at 50 µg/ml [5]: 96% | M14 Concentration (µg/ml) of Fab, 50% neutralization endpoint, pseudovirus assay [19]: 2.24 µg/mL | % of fusion inhibition (syncytia count), Fab at 50 µg/ml [6]: 31% | % of fusion inhibition (syncytia count), Fab at 50 µg/ml [7]: 100% | M14 Concentration (µg/ml) of Fab, 50% neutralization endpoint, pseudovirus assay [20]: > 100 µg/mL | % of fusion inhibition (syncytia count), Fab at 50 µg/ml [8]: 100% | % of fusion inhibition (syncytia count), Fab at 50 µg/ml [9]: 22% | % of fusion inhibition (syncytia count), Fab at 50 µg/ml [10]: 95% | % of fusion inhibition (syncytia count), Fab at 50 µg/ml [11]: 35% | M14 Concentration (µg/ml) of Fab, 50% neutralization endpoint, pseudovirus assay [21]: 3.1 µg/mL | M14 Concentration (µg/ml) of Fab, 50% neutralization endpoint, pseudovirus assay [22]: > 100 µg/mL | M14 Concentration (µg/ml) of Fab, 50% neutralization endpoint, pseudovirus assay [23]: 50 µg/mL | Kd [24]: 5.4 nM | Kd [25]: 0.3 nM | Kd [26]: 0.9 nM | Kd [27]: 7.3 nM | Kd [28]: 0.4 nM | Kd [29]: 1.2 nM

Fab m18
M18 Concentration (µg/ml) of Fab, 50% neutralization endpoint, pseudovirus assay [12]: 6.3 µg/mL | M18 Concentration (µg/ml) of Fab, 50% neutralization endpoint, pseudovirus assay [13]: 100 µg/mL | M18 Concentration (µg/ml) of Fab, 50% neutralization endpoint, pseudovirus assay [14]: 5 µg/mL | M18 Concentration (µg/ml) of Fab, 50% neutralization endpoint, pseudovirus assay [15]: > 100 µg/mL | % of fusion inhibition (syncytia count), Fab at 50 µg/ml [1]: 100% | M18 Concentration (µg/ml) of Fab, 50% neutralization endpoint, pseudovirus assay [30]: 3 µg/mL | % of fusion inhibition (syncytia count), Fab at 50 µg/ml [2]: 86% | % of fusion inhibition (syncytia count), Fab at 50 µg/ml [3]: 86% | M18 Concentration (µg/ml) of Fab, 50% neutralization endpoint, pseudovirus assay [16]: > 25 µg/mL | M18 Concentration (µg/ml) of Fab, 50% neutralization endpoint, pseudovirus assay [17]: > 100 µg/mL | % of fusion inhibition (syncytia count), Fab at 50 µg/ml [4]: 39% | M18 Concentration (µg/ml) of Fab, 50% neutralization endpoint, pseudovirus assay [18]: < 1.6 µg/mL | % of fusion inhibition (syncytia count), Fab at 50 µg/ml [5]: 92% | M18 Concentration (µg/ml) of Fab, 50% neutralization endpoint, pseudovirus assay [31]: 100 µg/mL | M18 Concentration (µg/ml) of Fab, 50% neutralization endpoint, pseudovirus assay [19]: 1.6 µg/mL | % of fusion inhibition (syncytia count), Fab at 50 µg/ml [6]: 25% | % of fusion inhibition (syncytia count), Fab at 50 µg/ml [7]: 93% | M18 Concentration (µg/ml) of Fab, 50% neutralization endpoint, pseudovirus assay [20]: > 100 µg/mL | % of fusion inhibition (syncytia count), Fab at 50 µg/ml [8]: 34% | % of fusion inhibition (syncytia count), Fab at 50 µg/ml [9]: 56% | % of fusion inhibition (syncytia count), Fab at 50 µg/ml [10]: 93% | % of fusion inhibition (syncytia count), Fab at 50 µg/ml [11]: 97% | M18 Concentration (µg/ml) of Fab, 50% neutralization endpoint, pseudovirus assay [32]: < 2 µg/mL | M18 Concentration (µg/ml) of Fab, 50% neutralization endpoint, pseudovirus assay [21]: 25 µg/mL | M18 Concentration (µg/ml) of Fab, 50% neutralization endpoint, pseudovirus assay [22]: > 100 µg/mL | M18 Concentration (µg/ml) of Fab, 50% neutralization endpoint, pseudovirus assay [33]: < 2 µg/mL | M18 Concentration (µg/ml) of Fab, 50% neutralization endpoint, pseudovirus assay [23]: 25 µg/mL | Kd [24]: 1 nM | Kd [34]: 0.08 nM | Kd [26]: 0.9 nM | EC50 [35]: 1.17 nM | EC50 [36]: 0.77 nM | EC50 [37]: 0.53 nM | EC50 [38]: 116 nM | EC50 [39]: 0.25 nM | EC50 [40]: 0.55 nM | EC50 [41]: 0.13 nM | EC50 [42]: 0.97 nM | EC50 [43]: 0.83 nM | EC50 [44]: 0.87 nM | EC50 [45]: 1.07 nM | Kd [27]: 0.9 nM | Kd [46]: 0.09 nM | Kd [29]: 0.7 nM | EC50 [47]: 0.48 nM
